This is an account of results in patent US20250011363A1, “OPTIMIZED SHORTENED PEPTIDE THAT BINDS TO ACETYLCHOLINE RECEPTOR, AND USE THEREOF” (SKINMED CO., LTD., priority 2021, published 2025).

This experiment concerns the target acetylcholine receptor (Homo sapiens, UniProt P02708). The experiment is described as follows: SPR binding affinity (RU) of optimized 5mer/6mer/7mer peptides, Examples 6-7. The settings on record: SPR, peptides tested at 10 μM. In outline: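 Synthetic 5mer and 6mer peptides, built from frequent or infrequent amino-acid combinations, were tested at 10 μM for binding to the human acetylcholine receptor by surface plasmon resonance. Binding is reported in response units (RU).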
For orientation: SPR reads the build-up and loss of mass on a sensor chip optically.

[1] abbreviates: Resonance Units, 5mer Bottom sequence (bottom combinations).

Sequence of acetylcholine receptor (P02708 21-457): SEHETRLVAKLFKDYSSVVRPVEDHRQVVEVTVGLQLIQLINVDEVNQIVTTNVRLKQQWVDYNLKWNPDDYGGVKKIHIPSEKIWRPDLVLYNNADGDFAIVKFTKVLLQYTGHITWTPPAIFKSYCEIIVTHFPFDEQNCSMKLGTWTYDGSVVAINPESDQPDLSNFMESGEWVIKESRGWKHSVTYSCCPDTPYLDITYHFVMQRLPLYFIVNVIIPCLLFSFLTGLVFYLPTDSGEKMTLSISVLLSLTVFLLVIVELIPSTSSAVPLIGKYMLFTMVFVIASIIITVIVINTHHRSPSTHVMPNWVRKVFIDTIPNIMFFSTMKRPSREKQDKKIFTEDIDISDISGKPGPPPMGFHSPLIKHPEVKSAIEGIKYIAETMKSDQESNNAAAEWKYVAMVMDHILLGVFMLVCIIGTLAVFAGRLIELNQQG

Consider 5mer-1036 (KTHMK), for which the Binding affinity under setting [1] was determined as 23 Ru.

Regarding 5mer-1037 (KKSFR), the Binding affinity under setting [1] is on record as 28 Ru.

For the substance 5mer-1038 (KCCKR), under setting [1], the Binding affinity was 17 Ru.

Regarding 5mer-1039 (KKDVK), under setting [1], the Binding affinity is reported as 32 Ru.

With 5mer-1040 (KTPWR), under setting [1], the Binding affinity is recorded as 17 Ru.

Consider 5mer-1041 (RDWFK), for which the Binding affinity under setting [1] turned out to be 27 Ru.

On to 5mer-1042 (RCCAK), for which, under setting [1], the Binding affinity stood at 28 Ru.

5mer-1043 (KFEMK): the Binding affinity under setting [1] is recorded as 15 Ru.

Regarding 5mer-1044 (RDCFK), the Binding affinity under setting [1] worked out at 22 Ru.

5mer-1045 (KMDEK): the Binding affinity under setting [1] worked out at 22 Ru.

Turning to 5mer-1046 (KHTMR), under setting [1], the Binding affinity turned out to be 19 Ru.

Turning to 5mer-1047 (KAHMR), the Binding affinity under setting [1] is recorded as 23 Ru.

5mer-1048 (KYDNK): the Binding affinity under setting [1] came out at 12 Ru.

For the substance 5mer-1049 (KPPGR), under setting [1], the Binding affinity turned out to be 29 Ru.

Turning to 5mer-1050 (KPEDR), the Binding affinity under setting [1] came to 31 Ru.

In the case of 5mer-1051 (RYAHR), the Binding affinity under setting [1] stood at 28 Ru.

In the case of 5mer-1052 (RNDWR), the Binding affinity under setting [1] is reported as 17 Ru.

In the case of 5mer-1053 (KHEHK), the Binding affinity under setting [1] amounted to 27 Ru.

With 5mer-1054 (RNKVR), under setting [1], the Binding affinity is 21 Ru.

Regarding 5mer-1055 (KHHEK), under setting [1], the Binding affinity is listed as 15 Ru.

As to 5mer-1056 (RCTPK), under setting [1], the Binding affinity amounted to 11 Ru.

5mer-1057 (RFDPK): the Binding affinity under setting [1] came out at 13 Ru.

As for 5mer-1058 (KIPWR), under setting [1], the Binding affinity was found to be 25 Ru.

5mer-1059 (RMAGR): the Binding affinity under setting [1] was 29 Ru.

As to 5mer-1060 (KTHIK), the Binding affinity under setting [1] came out at 29 Ru.

5mer-1061 (KDSFR): under setting [1], the Binding affinity is reported as 24 Ru.

In the case of 5mer-1062 (RAPWR), the Binding affinity under setting [1] is reported as 24 Ru.

As to 5mer-1063 (RPHVK), the Binding affinity under setting [1] was found to be 20 Ru.

Consider 5mer-1064 (KCMKR), for which the Binding affinity under setting [1] is given as 20 Ru.

5mer-1065 (KNPIR): the Binding affinity under setting [1] amounted to 18 Ru.

For the substance 5mer-1066 (RFWVK), the Binding affinity under setting [1] stood at 25 Ru.

In the case of 5mer-1067 (KHENK), under setting [1], the Binding affinity is on record as 23 Ru.

As to 5mer-1068 (RMHKK), under setting [1], the Binding affinity turned out to be 11 Ru.

As for 5mer-1069 (RPSFK), under setting [1], the Binding affinity was 31 Ru.

Consider 5mer-1070 (RETGK), for which, under setting [1], the Binding affinity amounted to 26 Ru.

Take 5mer-1071 (RYEGR): the Binding affinity under setting [1] is reported as 16 Ru.

On to 5mer-1072 (KDWPK), for which, under setting [1], the Binding affinity is 32 Ru.

Regarding 5mer-1073 (RDEAK), under setting [1], the Binding affinity is reported as 29 Ru.

For 5mer-1074 (RPCPR), under setting [1], the Binding affinity was 17 Ru.

Consider 5mer-1075 (RKHIK), for which the Binding affinity under setting [1] is 26 Ru.

For 5mer-1076 (KFEKK), the Binding affinity under setting [1] was 21 Ru.

5mer-1077 (KADMK): under setting [1], the Binding affinity came out at 12 Ru.

Consider 5mer-1078 (KEAWK), for which the Binding affinity under setting [1] is 19 Ru.

For the substance 5mer-1079 (KYTGR), under setting [1], the Binding affinity came out at 31 Ru.

Regarding 5mer-1080 (RYTHK), the Binding affinity under setting [1] is recorded as 25 Ru.

Take 5mer-1081 (RPNVR): the Binding affinity under setting [1] is recorded as 13 Ru.

5mer-1082 (RACFR): under setting [1], the Binding affinity was 11 Ru.

Take 5mer-1083 (KFSVR): the Binding affinity under setting [1] was 31 Ru.

In the case of 5mer-1084 (RTHDR), the Binding affinity under setting [1] is given as 21 Ru.

In the case of 5mer-1085 (RTTER), the Binding affinity under setting [1] was found to be 14 Ru.

Consider 5mer-1086 (RIWDR), for which the Binding affinity under setting [1] was 19 Ru.

As to 5mer-1087 (KKKKR), the Binding affinity under setting [1] amounted to 11 Ru.

Turning to 5mer-1088 (KAKKK), the Binding affinity under setting [1] stood at 16 Ru.

With 5mer-1089 (KTHHR), under setting [1], the Binding affinity came to 29 Ru.

As for 5mer-1090 (KISGK), under setting [1], the Binding affinity stood at 31 Ru.

Regarding 5mer-1091 (KTEHR), under setting [1], the Binding affinity is on record as 29 Ru.

Regarding 5mer-1092 (KPMVK), under setting [1], the Binding affinity is reported as 12 Ru.

Take 5mer-1093 (REEDK): under setting [1], the Binding affinity came out at 32 Ru.

For 5mer-1094 (RYSMK), the Binding affinity under setting [1] amounted to 15 Ru.

Turning to 5mer-1095 (KAEKR), the Binding affinity under setting [1] was 27 Ru.

Regarding 5mer-1096 (RPTDK), the Binding affinity under setting [1] is listed as 15 Ru.

Consider 5mer-1097 (KPDIR), for which the Binding affinity under setting [1] turned out to be 28 Ru.

Take 5mer-1098 (RFHGR): under setting [1], the Binding affinity was 31 Ru.

Take 5mer-1099 (RATAR): under setting [1], the Binding affinity turned out to be 14 Ru.

Regarding 5mer-1100 (RPWKR), under setting [1], the Binding affinity came to 24 Ru.

With 5mer-1101 (KYKNR), the Binding affinity under setting [1] is 11 Ru.

As to 5mer-1102 (KTHKK), under setting [1], the Binding affinity is reported as 20 Ru.

Regarding 5mer-1103 (KKSHR), the Binding affinity under setting [1] turned out to be 18 Ru.

As to 5mer-1104 (RETHK), the Binding affinity under setting [1] worked out at 12 Ru.

In the case of 5mer-1105 (RPTKR), the Binding affinity under setting [1] amounted to 33 Ru.

Take 5mer-1106 (RYTER): under setting [1], the Binding affinity stood at 18 Ru.

As for 5mer-1107 (RPWHK), the Binding affinity under setting [1] is recorded as 21 Ru.

Consider 5mer-1108 (RNPIR), for which, under setting [1], the Binding affinity is 19 Ru.

In the case of 5mer-1109 (KCHPK), the Binding affinity under setting [1] is listed as 14 Ru.

Turning to 5mer-1110 (RMHMK), the Binding affinity under setting [1] is reported as 13 Ru.

Regarding 5mer-1111 (KAEHK), the Binding affinity under setting [1] is on record as 12 Ru.

In the case of 5mer-1112 (RTTFK), for the setting “5mer Bottom sequence”, the Binding affinity was determined as 29 Ru.

In the case of 5mer-1113 (RHMER), under “5mer Bottom sequence”, the Binding affinity was 19 Ru.

As for 5mer-1114 (RKTFR), the Binding affinity (5mer Bottom sequence) is 28 Ru.

With 5mer-1115 (KEPEK), the Binding affinity (5mer Bottom sequence) stood at 27 Ru.

In the case of 5mer-1116 (KECFR), the Binding affinity (5mer Bottom sequence) is reported as 24 Ru.

As for 5mer-1117 (RHKIR), under “5mer Bottom sequence”, the Binding affinity is 11 Ru.

As for 5mer-1118 (RMDAR), the Binding affinity (5mer Bottom sequence) was 28 Ru.

For 5mer-1119 (KMNIK), the Binding affinity (5mer Bottom sequence) is reported as 19 Ru.

On to 5mer-1120 (RPPDR), for which the Binding affinity (5mer Bottom sequence) came to 33 Ru.

As for 5mer-1121 (RFKVK), for the setting “5mer Bottom sequence”, the Binding affinity stood at 29 Ru.

In the case of 5mer-1122 (RNTDR), for the setting “5mer Bottom sequence”, the Binding affinity came to 14 Ru.

Take 5mer-1123 (KYEKR): under “5mer Bottom sequence”, the Binding affinity is 24 Ru.

In the case of 5mer-1124 (KKPVK), where the note is “5mer Bottom sequence”, the Binding affinity is 30 Ru.

Regarding 5mer-1125 (RYPFK), the Binding affinity (5mer Bottom sequence) is given as 29 Ru.

For 5mer-1126 (KPTHK), the Binding affinity (5mer Bottom sequence) worked out at 26 Ru.

Regarding 5mer-1127 (RIADR), the Binding affinity (5mer Bottom sequence) was 16 Ru.

In the case of 5mer-1128 (REWVR), the Binding affinity (5mer Bottom sequence) is reported as 26 Ru.

On to 5mer-1129 (KFDAR), for which the Binding affinity (5mer Bottom sequence) is 14 Ru.

5mer-1130 (RFMVR): the Binding affinity (5mer Bottom sequence) was 17 Ru.

5mer-1131 (KCDGK): the Binding affinity (5mer Bottom sequence) is on record as 14 Ru.

As for 5mer-1132 (KFSMK), the Binding affinity (5mer Bottom sequence) is 19 Ru.

As to 5mer-1133 (KCSMK), the Binding affinity (5mer Bottom sequence) came out at 23 Ru.

Take 5mer-1134 (RTCKR): the Binding affinity (5mer Bottom sequence) was 26 Ru.

Turning to 5mer-1135 (RHTAR), the Binding affinity (5mer Bottom sequence) was determined as 17 Ru.

5mer-1136 (KNSAR): for the setting “5mer Bottom sequence”, the Binding affinity was 25 Ru.

Regarding 5mer-1137 (KEEEK), the Binding affinity (5mer Bottom sequence) is reported as 22 Ru.

On to 5mer-1138 (RENHK), for which the Binding affinity (5mer Bottom sequence) stood at 24 Ru.

5mer-1139 (KHCWK): the Binding affinity (5mer Bottom sequence) came out at 28 Ru.

For 5mer-1140 (RNEFK), the Binding affinity (5mer Bottom sequence) is on record as 28 Ru.

On to 5mer-1141 (REEVR), for which the Binding affinity (5mer Bottom sequence) is listed as 26 Ru.

5mer-1142 (KTENK): for the setting “5mer Bottom sequence”, the Binding affinity is 24 Ru.

With 5mer-1143 (RATGK), the Binding affinity (5mer Bottom sequence) is 19 Ru.

As to 5mer-1144 (KAKNR), the Binding affinity (5mer Bottom sequence) turned out to be 33 Ru.

With 5mer-1145 (RMPAK), the Binding affinity (5mer Bottom sequence) is listed as 25 Ru.

As for 5mer-1146 (KPHGR), the Binding affinity (5mer Bottom sequence) is 23 Ru.

With 5mer-1147 (RDTGK), the Binding affinity (5mer Bottom sequence) is reported as 16 Ru.

As for 5mer-1148 (RDWFR), the Binding affinity (5mer Bottom sequence) worked out at 24 Ru.

Consider 5mer-1149 (KETDR), for which the Binding affinity (5mer Bottom sequence) was 25 Ru.

For 5mer-1150 (KFTNR), the Binding affinity (5mer Bottom sequence) was 12 Ru.

Regarding 5mer-1151 (KTNAR), under “5mer Bottom sequence”, the Binding affinity stood at 26 Ru.

Turning to 5mer-1152 (KENFK), where the note is “5mer Bottom sequence”, the Binding affinity was 18 Ru.

In the case of 5mer-1153 (RDAPR), the Binding affinity (5mer Bottom sequence) came to 27 Ru.

As to 5mer-1154 (KCWVR), where the note is “5mer Bottom sequence”, the Binding affinity was found to be 12 Ru.

For the substance 5mer-1155 (RYDMK), where the note is “5mer Bottom sequence”, the Binding affinity is given as 25 Ru.

Consider 5mer-1156 (KKMNK), for which, under “5mer Bottom sequence”, the Binding affinity was found to be 13 Ru.

5mer-1157 (KTSHR): under “5mer Bottom sequence”, the Binding affinity is 21 Ru.

Consider 5mer-1158 (KYNPR), for which the Binding affinity (5mer Bottom sequence) turned out to be 23 Ru.

In the case of 5mer-1159 (KKWKK), the Binding affinity (5mer Bottom sequence) was 17 Ru.

Consider 5mer-1160 (KETWR), for which, where the note is “5mer Bottom sequence”, the Binding affinity turned out to be 14 Ru.

For the substance 5mer-1161 (KCHDR), the Binding affinity (5mer Bottom sequence) was determined as 21 Ru.

Consider 5mer-1162 (KIKKK), for which, where the note is “5mer Bottom sequence”, the Binding affinity is listed as 15 Ru.

In the case of 5mer-1163 (KKSKR), the Binding affinity (5mer Bottom sequence) is reported as 12 Ru.

Regarding 5mer-1164 (RFPWR), the Binding affinity (5mer Bottom sequence) amounted to 33 Ru.

As to 5mer-1165 (RNMNR), the Binding affinity (5mer Bottom sequence) worked out at 21 Ru.

On to 5mer-1166 (KTHEK), for which the Binding affinity (5mer Bottom sequence) is 32 Ru.

Regarding 5mer-1167 (KESWK), the Binding affinity (5mer Bottom sequence) was 12 Ru.

Regarding 5mer-1168 (RHHWR), the Binding affinity (5mer Bottom sequence) is recorded as 31 Ru.

Regarding 5mer-1169 (KDTPK), the Binding affinity (5mer Bottom sequence) was 29 Ru.

As for 5mer-1170 (KHSEK), under “5mer Bottom sequence”, the Binding affinity came out at 28 Ru.

With 5mer-1171 (RCSWK), the Binding affinity (5mer Bottom sequence) was 21 Ru.

In the case of 5mer-1172 (KIWWR), where the note is “5mer Bottom sequence”, the Binding affinity was 25 Ru.

For the substance 5mer-1173 (KECKR), for the setting “5mer Bottom sequence”, the Binding affinity is given as 30 Ru.
